# According to IntAct's records for PubMed 16254079:
# B1: Proliferation-associated protein 2G4 (Homo sapiens), Q9UQ80 (parent)
# chain: MSGEDEQQEQTIAEDLVVTKYKMGGDIANRVLRSLVEASSSGVSVLSLCEKGDAMIMEETGKIFKKEKEMKKGIAFPTSISVNNCVCHFSPLKSDQDYILKEGDLVKIDLGVHVDGFIANVAHTFVVDVAQGTQVTGRKADVIKAAHLCAEAALRLVKPGNQNTQVTEAWNKVAHSFNCTPIEGMLSHQLKQHVIDGEKTIIQNPTDQQKKDHEKAEFEVHEVYAVDVLVSSGEGKAKDAGQRTTIYKRDPSKQYGLKMKTSRAFFSEVERRFDAMPFTLRAFEDEKKARMGVVECAKHELLQPFNVLYEKEGEFVAQFKFTVLLMPNGPMRITSGPFEPDLYKSEMEVQDAELKALLQSSASRKTQKKKKKKASKTAENATSGETLEENEAGD
# partner: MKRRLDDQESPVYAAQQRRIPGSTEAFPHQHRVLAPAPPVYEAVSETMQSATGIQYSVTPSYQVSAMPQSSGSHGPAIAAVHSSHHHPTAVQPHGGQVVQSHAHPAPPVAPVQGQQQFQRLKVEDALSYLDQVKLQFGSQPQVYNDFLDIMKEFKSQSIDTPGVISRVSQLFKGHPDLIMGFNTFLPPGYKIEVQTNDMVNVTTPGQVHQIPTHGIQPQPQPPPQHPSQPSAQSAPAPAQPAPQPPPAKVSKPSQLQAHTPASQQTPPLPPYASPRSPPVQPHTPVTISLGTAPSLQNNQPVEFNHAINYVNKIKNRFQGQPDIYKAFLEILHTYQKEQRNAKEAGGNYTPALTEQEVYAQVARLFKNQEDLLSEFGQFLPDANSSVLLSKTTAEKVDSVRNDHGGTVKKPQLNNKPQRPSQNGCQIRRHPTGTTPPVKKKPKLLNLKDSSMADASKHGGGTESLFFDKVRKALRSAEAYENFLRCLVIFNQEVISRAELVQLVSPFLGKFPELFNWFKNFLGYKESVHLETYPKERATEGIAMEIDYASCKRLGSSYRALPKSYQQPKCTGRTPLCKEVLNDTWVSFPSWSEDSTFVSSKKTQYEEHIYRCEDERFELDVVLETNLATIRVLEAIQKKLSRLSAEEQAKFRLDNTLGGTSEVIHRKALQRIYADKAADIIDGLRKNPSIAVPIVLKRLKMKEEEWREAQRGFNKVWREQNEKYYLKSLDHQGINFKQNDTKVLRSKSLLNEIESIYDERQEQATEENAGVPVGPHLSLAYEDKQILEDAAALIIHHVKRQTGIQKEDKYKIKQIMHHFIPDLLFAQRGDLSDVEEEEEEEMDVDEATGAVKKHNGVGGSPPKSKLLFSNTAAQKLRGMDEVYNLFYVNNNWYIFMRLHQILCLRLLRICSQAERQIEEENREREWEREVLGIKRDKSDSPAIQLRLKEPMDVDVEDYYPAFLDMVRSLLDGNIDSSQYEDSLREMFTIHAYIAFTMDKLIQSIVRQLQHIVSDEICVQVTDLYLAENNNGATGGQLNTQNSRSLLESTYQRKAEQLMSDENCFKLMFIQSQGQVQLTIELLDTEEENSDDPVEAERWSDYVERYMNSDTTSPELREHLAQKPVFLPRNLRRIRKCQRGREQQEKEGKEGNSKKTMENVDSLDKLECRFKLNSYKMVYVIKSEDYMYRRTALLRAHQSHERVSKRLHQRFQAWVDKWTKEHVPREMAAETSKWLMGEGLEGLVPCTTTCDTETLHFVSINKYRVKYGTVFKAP
# Variants of: B1
# Settings: with sin3a_human SIN3A
row,Variant,effect of a mutation on the interaction
1,L357A;L358A,disrupting interaction
